Experimental data from PMC3034019.

Molecular target: Oregon-Green-labelled actin monomers (OG-actin) (UniProt P68135)
Assay: stopped-flow fluorescence kinetics

**Q.** With “EVH2 domain of human VASP (hEVH2) (domain or fragment)” as the substance, how does the kon read?
**A.** 1.2e+07 to 1.8e+07 M⁻¹ s⁻¹
